Laboratory results taken from US20210261667A1.

Columns and labels:
[1] = molecular target: PD-L1 expressed on the cell surface (HEK293F transiently transfected; A375/PD-L1 stably transfected cells) (UniProt Q9NZQ7); test: flow cytometry blocking assay on A375/PD-L1 cells; blocked ligand hPD-1(ECD)-Fc-Biotin, SA-PE detection, MFI [table, row 1]
[2] = molecular target: PD-L1 expressed on the cell surface (HEK293F transiently transfected; A375/PD-L1 stably transfected cells) (UniProt Q9NZQ7); test: flow cytometry blocking assay on A375/PD-L1 cells; blocked ligand hPD-1(ECD)-Fc-Biotin, SA-PE detection [column 0.5 ug/ml]
[3] = molecular target: PD-L1 expressed on the cell surface (HEK293F transiently transfected; A375/PD-L1 stably transfected cells) (UniProt Q9NZQ7); test: flow cytometry blocking assay on A375/PD-L1 cells; blocked ligand hPD-1(ECD)-Fc-Biotin, SA-PE detection [column 0.05 ug/ml]
[4] = molecular target: PD-L1 expressed on the cell surface (HEK293F transiently transfected; A375/PD-L1 stably transfected cells) (UniProt Q9NZQ7); test: flow cytometry blocking assay on A375/PD-L1 cells; blocked ligand hPD-1(ECD)-Fc-Biotin, SA-PE detection [column 0.005 ug/ml]
[5] = molecular target: PD-L1 expressed on the cell surface (HEK293F transiently transfected; A375/PD-L1 stably transfected cells) (UniProt Q9NZQ7); test: flow cytometry blocking assay on HEK293F cells transiently transfected with PD-L1; blocked ligand hPD-1 biotin, SA-PE detection
[6] = molecular target: PD-L1 expressed on the cell surface (HEK293F transiently transfected; A375/PD-L1 stably transfected cells) (UniProt Q9NZQ7); test: flow cytometry blocking assay on A375/PD-L1 cells; blocked ligand hPD-1(ECD)-Fc-Biotin, SA-PE detection; no concentration printed for this panel, which stands above the 0.5 ug/ml column

Chain of PD-L1 expressed on the cell surface (HEK293F transiently transfected; A375/PD-L1 stably transfected cells) (Q9NZQ7 19-290 limits assumed): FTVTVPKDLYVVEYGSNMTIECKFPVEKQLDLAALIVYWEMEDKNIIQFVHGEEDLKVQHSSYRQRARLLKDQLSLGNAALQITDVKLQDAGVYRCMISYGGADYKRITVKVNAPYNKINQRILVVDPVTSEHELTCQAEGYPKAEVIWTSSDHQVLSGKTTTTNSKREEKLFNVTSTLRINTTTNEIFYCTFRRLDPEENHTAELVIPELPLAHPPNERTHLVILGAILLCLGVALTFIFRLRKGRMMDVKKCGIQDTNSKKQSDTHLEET

| Substance | IC50 [1] [µg/mL] | Q2 % (cells still positive for hPD-1(ECD)-Fc-Biotin) at 0.5 ug/ml antibody [2] [%] | Q2 % (cells still positive for hPD-1(ECD)-Fc-Biotin) at 0.05 ug/ml antibody [3] [%] | Q2 % (cells still positive for hPD-1(ECD)-Fc-Biotin) at 0.005 ug/ml antibody [4] [%] | Q2 % (cells still positive for PD-1-biotin with the antibody present) [5] [%] | Q2 % (cells still positive for hPD-1(ECD)-Fc-Biotin with the antibody present) [6] [%] |
| --- | --- | --- | --- | --- | --- | --- |
| Tecentriq (antibody) | 0.456 | 11.8 | 85.3 | 86 | – | – |
| negative control antibody | – | – | – | – | 86.2 | 85.9 |
